Test results from PMC13168245.

Target: AMC008 SOSIP.v4.2 Env (HIV-1 (clade B, isolate AMC008))
Experiment: mass photometry; AMC008 alone or with one excess Fab, 1:9 molar ratio in PBS, on ice 30 minutes, diluted in PBS; mass increase divided by 55 kDa per Fab

## antibody 3BC315 Fab
  stoichiometry N: 2.07 Fab/55 kDa

## AMC008 SOSIP.v4.2 Env (complex)
  stoichiometry N: 3

## antibody b12 Fab
  stoichiometry N: 3.09 Fab/55 kDa
